According to patent US20160317656A1 (Daiichi Sankyo, published 2016):
Positions count from the first letter of the chain named.

B1: rat anti-human FGFR2 monoclonal antibody FR2-13 (antibody, V domains shown)
VH: QVKLLQSGAELVKPGASVKLSCKTSGFTFSTSYMSWLKQVPGPSIEWIGWIYAGDGGTKYNQKFKGKATLTVDKSSSTAYMDLSSLTSEDAAVYFCATDGYGDWFAYWGQGTLVTVSS
VL: DIQMTQSPASLSASLGETVTIECRASEDIYSNLAWYQQKPGNSPQLLIYDANILADGVPSRFSGSGSGTQYSLKINSLQSEDVASYFCQQYNNYPPFTFGVGTKLELKR
notes: Used as hybridoma culture supernatant or purified from mouse ascites; also called rat FR2-13 antibody
B2: human chimeric anti-FGFR2 antibody cFR2-13 (antibody, human IgG1, V domains shown)
VH: B1 VH
VL: B1 VL
notes: Rat FR2-13 variable regions on human IgG1 / kappa constant regions; also called human chimeric FR2-13
B3: rat anti-human FGFR2 monoclonal antibody FR2-14 (antibody, V domains shown)
VH: B1 VH with I45T, S75F, A106T
VL: B1 VL with V101A
notes: Used as hybridoma culture supernatant or purified from mouse ascites; also called rat FR2-14 antibody
B4: human chimeric anti-FGFR2 antibody cFR2-14 (antibody, human IgG1, V domains shown)
VH: B1 VH with I45T, S75F, A106T
VL: B1 VL with V101A
notes: Rat FR2-14 variable regions on human IgG1 / kappa constant regions; also called human chimeric FR2-14
B5: rat anti-human FGFR2 monoclonal antibody FR2-10 (antibody, V domains shown)
VH: EVQLVESGGGLVQPGRSLKLSCVASGFRFNDFWMTWIRQAPGKGLEWVASITYTGDNTYYAGSVKGRITISRDNAKSTLYLQMNSLRSEDTATYYCTRDDYGGYSPYYMDAWGQGTSVTVSS
VL: DIQMTQSPSSLSAFLGDRVTITCRASQDIGNYLRWFQQKPGKSPRLMIYGATNLANGVPSRFSGSRSGSDYSLTINNLESEDMAIYYCLKHNEYPFTFGSGTKLEIKR
notes: Used as hybridoma culture supernatant or purified from mouse ascites; also called rat FR2-10 antibody
B6: human chimeric anti-FGFR2 antibody cFR2-10 (antibody, human IgG1, V domains shown)
VH: B5 VH
VL: B5 VL
notes: Rat FR2-10 variable regions on human IgG1 / kappa constant regions; also called human chimeric FR2-10

Assays:
[1] = target: T1, human FGFR2 IIIc variant protein (isoform 1: NP_000132), expressed on transfected cells (human, UniProt P21802 22-821); test: flow cytometry, hybridoma supernatant on transfected HEK293T cells
T1 construct: also called pcDNA-DEST40-FGFR2 IIIc
Experimental: (§1) The cell suspension was centrifuged to remove the supernatant. […] The cells were washed twice with PBS containing 5% FBS, then suspended by the addition of Anti-Rat IgG FITC conjugate (manufactured by Sigma-Aldrich Corp.) diluted 320-fold with PBS containing 5% FBS, and left standing at 4° C. for 1 hour. The cells were washed 3 times with PBS containing 5% FBS and then resuspended in PBS containing 5% FBS and 2 μg/ml 7-aminoactinomycin D (manufactured by Molecular Probes, Inc.), followed by detection using a flow cytometer (FC500; manufactured by Beckman Coulter Inc.). The data was analyzed using Flowjo (manufactured by Tree Star Inc.). After removal of 7-aminoactinomycin D-positive dead cells by gating, the FITC fluorescence intensity of live cells was plotted to a histogram to calculate average fluorescence intensity (MFI).

[2] = target: T2, human FGFR2 IIIb variant protein (isoform 2: NP_075259), expressed on transfected cells (human, UniProt P21802 22-821); test: as above
T2 construct: also called pcDNA-DEST40-FGFR2 IIIb
T2 chain: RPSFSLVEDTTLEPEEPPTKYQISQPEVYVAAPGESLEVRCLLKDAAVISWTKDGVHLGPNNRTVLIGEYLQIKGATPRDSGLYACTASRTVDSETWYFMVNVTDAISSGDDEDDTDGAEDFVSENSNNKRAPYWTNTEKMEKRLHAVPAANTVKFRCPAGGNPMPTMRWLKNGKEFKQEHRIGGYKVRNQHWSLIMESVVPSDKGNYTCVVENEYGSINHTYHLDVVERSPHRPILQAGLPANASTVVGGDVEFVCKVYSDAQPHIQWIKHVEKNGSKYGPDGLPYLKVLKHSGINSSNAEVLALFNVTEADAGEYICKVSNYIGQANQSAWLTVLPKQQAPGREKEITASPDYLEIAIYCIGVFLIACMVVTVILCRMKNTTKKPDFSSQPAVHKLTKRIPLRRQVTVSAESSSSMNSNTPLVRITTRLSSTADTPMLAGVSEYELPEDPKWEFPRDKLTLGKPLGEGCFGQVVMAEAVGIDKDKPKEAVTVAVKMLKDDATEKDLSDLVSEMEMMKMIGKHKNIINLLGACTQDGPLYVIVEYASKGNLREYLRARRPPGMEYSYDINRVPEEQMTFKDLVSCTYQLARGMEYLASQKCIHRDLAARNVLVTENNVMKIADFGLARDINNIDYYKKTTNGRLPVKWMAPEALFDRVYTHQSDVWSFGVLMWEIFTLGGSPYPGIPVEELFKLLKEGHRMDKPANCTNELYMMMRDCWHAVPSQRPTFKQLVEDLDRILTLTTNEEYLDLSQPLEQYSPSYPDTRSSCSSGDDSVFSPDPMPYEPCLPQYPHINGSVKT
Experimental: as §1

[3] = target: T1, human FGFR2 IIIc variant protein …; test: Cell-ELISA on transfected 293 alpha cells, antibody 2 ug/ml
Experimental: (§2) The resulting cells were dispensed in an amount of 100 μl/well to a 96-well plate (manufactured by Corning Inc.) and cultured overnight at 37° C. under 5% CO₂ conditions in a DMEM medium containing 10% FBS. The obtained transfected cells were used in the attached state in Cell-ELISA. […] The cells in the wells were washed once with PBS containing 5% FBS. Then, Anti-Human IgG-Peroxidase antibody produced in goat (manufactured by Sigma-Aldrich Corp.) diluted 500-fold with PBS containing 5% FBS was added thereto, and the plate was left standing at 4° C. for 1 hour. The cells in the wells were washed 5 times with PBS containing 5% FBS. Then, an OPD chromogenic solution (OPD solution (o-phenylenediamine dihydrochloride (manufactured by Wako Pure Chemicals Industries, Ltd.) and H₂O₂ dissolved at concentrations of 0.4 mg/ml and 0.6% (v/v), respectively, in 0.05 M trisodium citrate and 0.1 M disodium hydrogen phosphate dodecahydrate, pH 4.5)) was added thereto at a concentration of 100 μl/well. Color reaction was performed with occasional stirring and stopped by the addition of 1 M HCl at a concentration of 100 μl/well. Then, the absorbance was measured at 490 nm using a plate reader (ARVO; PerkinElmer, Inc.).

[4] = target: T2, human FGFR2 IIIb variant protein …; test: as above
Experimental: as §2

[5] = target: T1, human FGFR2 IIIc variant protein …; test: flow cytometry on transfected HEK293T cells
Experimental: as §1

Row | Binder | binding result [2] | binding result [3] | binding result [4] | further results
1 | B1 | binds | – | – | binding result [1]: binds
2 | B2 | – | binds | binds | –
3 | B3 | binds | – | – | binding result [5]: binds
4 | B4 | – | binds | binds | –
5 | B5 | binds | – | – | –
6 | B6 | – | – | binds | –
